# Results taken from IntAct's records for PubMed 38288086.
# B1: OTU domain-containing protein 3 (Homo sapiens), Q5T2D3 (parent)
# chain: MSRKQAAKSRPGSGSRKAEAERKRDERAARRALAKERRNRPESGGGGGCEEEFVSFANQLQALGLKLREVPGDGNCLFRALGDQLEGHSRNHLKHRQETVDYMIKQREDFEPFVEDDIPFEKHVASLAKPGTFAGNDAIVAFARNHQLNVVIHQLNAPLWQIRGTEKSSVRELHIAYRYGEHYDSVRRINDNSEAPAHLQTDFQMLHQDESNKREKIKTKGMDSEDDLRDEVEDAVQKVCNATGCSDFNLIVQNLEAENYNIESAIIAVLRMNQGKRNNAEENLEPSGRVLKQCGPLWEEGGSGARIFGNQGLNEGRTENNKAQASPSEENKANKNQLAKVTNKQRREQQWMEKKKRQEERHRHKALESRGSHRDNNRSEAEANTQVTLVKTFAALNI
# partner: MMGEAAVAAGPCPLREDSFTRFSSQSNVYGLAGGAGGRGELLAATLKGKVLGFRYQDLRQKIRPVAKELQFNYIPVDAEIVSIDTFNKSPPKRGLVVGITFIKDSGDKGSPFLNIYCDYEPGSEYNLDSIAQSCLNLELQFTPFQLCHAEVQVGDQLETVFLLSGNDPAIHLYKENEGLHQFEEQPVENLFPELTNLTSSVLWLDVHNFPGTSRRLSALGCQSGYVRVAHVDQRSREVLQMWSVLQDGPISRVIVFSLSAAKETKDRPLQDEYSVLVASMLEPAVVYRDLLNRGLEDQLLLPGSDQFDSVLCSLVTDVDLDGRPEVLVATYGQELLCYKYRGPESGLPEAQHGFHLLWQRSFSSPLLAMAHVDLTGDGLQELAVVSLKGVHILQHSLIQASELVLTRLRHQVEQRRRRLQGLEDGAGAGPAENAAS
# Variants of: B1
# Conditions: with kptn_human KPTN
row,effect of a mutation on the interaction,Variant
1,with no effect,MSRKQAAKSRPGSGSRKAEAERKRDERAARRALAKERRNRPESGGGGGCEEEFVSFANQLQALGLKLREVPGDGNALFRALGDQLEGHSRNHLKHRQETVDYMIKQREDFEPFVEDDIPFEKHVASLAKPGTFAGNDAIVAFARNHQLNVVIHQLNAPLWQIRGTEKSSVRELHIAYRYGEHYDSVRRINDNSEAPAHLQTDFQMLHQDESNKREKIKTKGMDSEDDLRDEVEDAVQKVCNATGCSDFNLIVQNLEAENYNIESAIIAVLRMNQGKRNNAEENLEPSGRVLKQCGPLWEEGGSGARIFGNQGLNEGRTENNKAQASPSEENKANKNQLAKVTNKQRREQQWMEKKKRQEERHRHKALESRGSHRDNNRSEAEANTQVTLVKTFAALNI [C76A]
